# Values quoted from earlier work in EP4471063A1, “ANTIBODY AGAINST HER3, CONJUGATE AND USE THEREOF” (priority 2022, dated 2023).
# What was measured:
# [1] = multicenter clinical studies
# [2] = once every three weeks, five administrations, 0, 3, 10, 30 mg/kg
substance,measurement,setting,value
Patritumab Deruxtecan,thrombocytopenia as treatment emergent adverse event (TEAE),[1],30%
same,body weight,at all doses,no significant abnormality
same,toxic target organs,"cynomolgus monkey, in vivo","thymus, bone marrow, and skin"
same,"dose at which a decrease in reticulocytes, lymphocytes, and platelets was observed",[2],≥ 3 mg/kg
same,dose at which transferases increased,[2],≥ 10 mg/kg
